Measured values reported in patent US20020055130A1, “Method and product for regulating apoptosis” (National Jewish Center for Immunology and Respiratory …, priority 1997, published 2002).

How the values were obtained:
Type in all cases: cell-based, Human
[1] = system: c-Jun kinase (JNK); test: c-Jun kinase assay, transfected HEK293 cells; conditions: for effect on activation of the JNKs by MEKK1: co-expression with MEKK1
Description: (§1) Lysis buffer (70 mM β-glycerophosphate, 1 mM EGTA, 100 μM Na3VO4, 1 mM DTT, 2 mM MgCl2, 0.5% Triton-X100, 20 μg/ml aprotinin) was added to cells 15-24 hours after transfection. Cellular debris was removed by centrifugation at 8,000xg for 5 min. Protein concentration was normalized by Bradford assay using BSA as standard.
c-Jun kinase (JNK) activity was measured using a solid phase kinase assay in which glutathione S-transferase-c-Jun(1-79) (GST-Jun) bound to glutathione-Sepharose 4B beads was used to affinity-purify JNK from cell lysates as described (Gardner and Johnson, 1996; Hibi et al., 1993). Alternatively, JNKI or JNK2 were immunoprecipitated with isoform specific antibodies (Santa Cruz Biotechnology) and GST-Jun used as substrate in an in vitro kinase assay (Hibi et al., 1993). Quantitation of the phosphorylation of GST-Jun was performed with a Phosphorlmager.

[2] = system: MEKK1; test: Immunoblot of cleavage fragments of transfected HA-tagged MEKK1 in HEK293 cells; conditions: for effect on proteolysis of MEKK1: co-expression with MEKK1
Excerpt: The full length cDNA encoding mouse MEKK1 was modified by addition of the HA-tag sequence ([…]) (SEQ ID NO: 12) at its NH2-terminus and inserted into the expression plasmid pCEP4 (Invitrogen), resulting in plasmid MEKK1.cp4. The MEKK1 sequences DTVD (amino acids 871-874) and DEVE (amino acids 857-860) in MEKK1.cp4 were substituted with alanines using a PCR strategy. The resulting plasmids were named DTVD_A.cp4 and DEVE_A.cp4. The cDNAs for CrmA (Pickup et al., 1986), p35 (Cartier et al., 1994), JNK1-APF (Dérijard et al., 1994) and JNK2-APF (Kallunki et al., 1994) were subcloned in pCEP4 in which the hygromycin resistance gene had been removed, resulting in plasmids CrmA.cp_, p35.cp_, JNK1_APF.cp and JNK2_APF.cp_. Plasmid pCDNA—3.cp4 is the result of the ligation of pCEP4 and pCDNA-3.
200-400 μg cell lysate protein was subjected to SDS-9% PAGE and transferred to nitrocellulose membranes. Blots were performed exactly as described (Widmann et al., 1995). To detect HA-tagged proteins, the mouse monoclonal antibody 12CA5 (Babco) was used as the primary antibody, followed by a rabbit anti-mouse antibody (Cappel). HRP-conjugated protein A at a 1/5000 dilution (Zymed) and ^125I-protein A at a 1/500 dilution (Dupont NEN) were then used for enhanced chemiluminescence (ECL) detection and for quantification using the phosphorimager. To detect MEKK1, 3 different ploclonal antisera were used as primary antibodies, followed by ECL detection using HRP-protein A (see above). These sera were generated by injecting rabbits with GST proteins fused with different portions of the MEKK1 protein.

[3] = system: HEK293 cells; test: MEKK1 staining and TdT-mediated dUTP incorporation (DNA fragmentation) in transfected cells; conditions: for diminution of apoptotic cells induced by MEKK1 expression: co-expression with MEKK1
Description: Human embryonal kidney 293 cells (HEK293) stably expressing the EBNA-1 protein from Epstein-Barr virus (Invitrogen) were grown in Dulbecco's modified Eagle's medium (DMEM) supplemented with 100 U/ml penicillin/streptomycin and containing 10% bovine calf serum (BCS). The cells were transfected using lipofectamine (Gibco).
Cells were grown on glass coverslips and transfected using lipofectamine. Two days after transfection, the medium was removed and the cells were fixed in 2% paraformaldehyde, 3% sucrose in phosphate buffered saline (PBS) for 10 min at room temperature. Following three washes with PBS, the cells were permeabilized for 10 min with 2% Triton-X100 in PBS. After three PBS washes, the cells were blocked with filtered cultured medium for 15 min. The coverslips were then incubated 1 hour in TdT reaction mix (200 mM potassium cacodylate, 25 mM Tris.HCl, pH 6.6, 250 μg/ml BSA, 5 mM CoCl2, 0.25 U/μl TdT [Boehringer], 10 μM biotin-dUTP [Boehringer]) at 37° C. in a humidifed atmosphere. […] The coverslips were then washed 6× over a 30 min period with PBS and incubated 1 hour at room temperature with a 1/1000 dilution in filtered culture medium of a donkey anti-rabbit, Cy^3-conjugated, antibody (Jackson Immunological) mixed with 5 μg/ml streptavidin conjugated with FITC (Jackson Immunological). The coverslips were washed 6× with PBS and incubated overnight in PBS before being mounted in 20 mg/ml o-phenyldiamine-diHCl (Sigma) in 0.1 M Tris pH 8.5, 90% glycerol. Images were taken using a Leica DMRXA microscope and analyzed with the SlideBook v2.0 software (Intelligent Imaging Innovations, Denver). The subcellular localization of endogenous MEKK1 observed with the anti-COOH-terminal MEKK1 antibody was identical to that observed with a second antibody recognizing the NH2-terminal portion of the MEKK1 protein.

[4] = system: ERK2; test: ERK2 immunoprecipitation kinase assay, transfected HEK293 cells; conditions: co-expression with MEKK1
Description: as §1
ERK2 was immunoprecipitated as described above for the JNK isoforms using the ERK2 (C-14) antibody (Santa Cruz Biotechnology). The beads were washed twice with 1 ml lysis buffer and twice with 1 ml lysis buffer without Triton-X100. […] The samples were washed thrice for 5 min each in 75 mM phosphoric acid and once for 2 min in acetone, air-dried, and their radioactivity determined in a β counter.

Row | Molecule | JNK activation ([1]; expression in HEK293 cells) | MEKK1 cleavage fragments generated ([2]; mutants transfected into HEK293 cells) | DNA fragmentation ([3]; expression in HEK293 cells) | effect on activation of the JNKs by MEKK1 [1] | effect on proteolysis of MEKK1 [2] | effect on activation of ERK2 by MEKK1 [4] | diminution of apoptotic cells induced by MEKK1 expression [3] | diminution of apoptotic cells induced by MEKK1 expression ([3]; listed as JNKI-APF)
1 | DEVE→A: MEKK1 mutant with DEVE (amino acids 857-860) substituted with alanines (protein, UniProt P53349 2-1493, looked up, variant D857A E858A V859A E860A) Mitogen-activated protein …: AAAAGDRASSSGFPGAAAASPEAGGGGGGGGALQGSGAPAAGAAGLLREPGSAGRERADWRRRQLRKVRSVELDQLPEQPLFLAAASPPCPSTSPSPEPADAAAGASRFQPAAGPPPPGAASRCGSHSAELAAARDSGARSPAGAEPPSAAAPSGREMENKETLKGLHKMEDRPEERMIREKLKATCMPAWKHEWLERRNRRGPVVVKPIPIKGDGSEVNNLAAEPQGEGQAGSAAPAPKGRRSPSPGSSPSGRSVKPESPGVRRKRVSPVPFQSGRITPPRRAPSPDGFSPYSPEETSRRVNKVMRARLYLLQQIGPNSFLIGGDSPDNKYRVFIGPQNCSCGRGAFCIHLLFVMLRVFQLEPSDPMLWRKTLKNFEVESLFQKYHSRRSSRIKAPSRNTIQKFVSRMSNSHTLSSSSTSTSSSENSIKDEEEQMCPICLLGMLDEESLTVCEDGCRNKLHHHCMSIWAEECRRNREPLICPLCRSKWRSHDFYSHELSSPVESPASLRAVQQPSSPQQPVAGSQRRNQESSFNLTHFGTQQIPSAYKDLAEPWIQVFGMELVGCLFSRNWNVREMALRRLSHDVSGALLLANGESTGNSGGGSGGSLSAGAASGSSQPSISGDVVEACCSVLSIVCADPVYKVYVAALKTLRAMLVYTPCHSLAERIKLQRLLRPVVDTILVKCADANSRTSQLSISTVLELCKGQAGELAVGREILKAGSIGVGGVDYVLSCILGNQAESNNWQELLGRLCLIDRLLLEFPAEFYPHIVSTDVSQAEPVEIRYKKLLSLLTFALQSIDNSHSMVGKLSRRIYLSSARMVTAVPAVFSKLVTMLNASGSTHFTRMRRRLMAIAAAAAIAEVIQLGVEDTVDGHQDSLQAVAPTSCLENSSLEHTVHREKTGKGLSATRLSASSEDISDRLAGVSVGLPSSTTTEQPKPAVQTKGRPHSQCLNSSPLSHAQLMFPAPSAPCSSAPSVPDISKHRPQAFVPCKIPSASPQTQRKFSLQFQRNCSEHRDSDQLSPVFTQSRPPPSSNIHRPKPSRPVPGSTSKLGDATKSSMTLDLGSASRCDDSFGGGGNSGNAVIPSDETVFTPVEDKCRLDVNTELNSSIEDLLEASMPSSDTTVTFKSEVAVLSPEKAENDDTYKDDVNHNQKCKEKMEAEEEEALAIAMAMSASQDALPIVPQLQVENGEDIIIIQQDTPETLPGHTKAKQPYREDAEWLKGQQIGLGAFSSCYQAQDVGTGTLMAVKQVTYVRNTSSEQEEVVEALREEIRMMGHLNHPNIIRMLGATCEKSNYNLFIEWMAGGSVAHLLSKYGAFKESVVINYTEQLLRGLSYLHENQIIHRDVKGANLLIDSTGQRLRIADFGAAARLASKGTGAGEFQGQLLGTIAFMAPEVLRGQQYGRSCDVWSVGCAIIEMACAKPPWNAEKHSNHLALIFKIASATTAPSIPSHLSPGLRDVAVRCLELQPQDRPPSRELLKHPVFRTTW | activated JNK to the same level as wild type MEKK1 | cleaved into fragments A, B, C and D | induced DNA fragmentation | – | – | – | – | –
2 | JNK2-APF: inhibitory mutant of JNK2 (protein, UniProt P45984 1-424, looked up, variant T183A Y185F) Mitogen-activated protein …: MSDSKCDSQFYSVQVADSTFTVLKRYQQLKPIGSGAQGIVCAAFDTVLGINVAVKKLSRPFQNQTHAKRAYRELVLLKCVNHKNIISLLNVFTPQKTLEEFQDVYLVMELMDANLCQVIHMELDHERMSYLLYQMLCGIKHLHSAGIIHRDLKPSNIVVKSDCTLKILDFGLARTACTNFMMAPFVVTRYYRAPEVILGMGYKENVDIWSVGCIMGELVKGCVIFQGTDHIDQWNKVIEQLGTPSAEFMKKLQPTVRNYVENRPKYPGIKFEELFPDWIFPSESERDKIKTSQARDLLSKMLVIDPDKRISVDEALRHPYITVWYDPAEAEAPPPQIYDAQLEEREHAIEEWKELIYKEVMDWEERSKNGVVKDQPSDAAVSSNATPSQSSSINDISSMSTEQTLASDTDSSLDASTGPLEGCR | – | – | – | unaffected | little effect on the proteolysis of the MEKK1 protein | unaffected | – | –
3 | JNK1-APF: inhibitory mutant of JNK1 (protein, UniProt P45983 1-427, looked up, variant T183A Y185F) Mitogen-activated protein …: MSRSKRDNNFYSVEIGDSTFTVLKRYQNLKPIGSGAQGIVCAAYDAILERNVAIKKLSRPFQNQTHAKRAYRELVLMKCVNHKNIIGLLNVFTPQKSLEEFQDVYIVMELMDANLCQVIQMELDHERMSYLLYQMLCGIKHLHSAGIIHRDLKPSNIVVKSDCTLKILDFGLARTAGTSFMMAPFVVTRYYRAPEVILGMGYKENVDLWSVGCIMGEMVCHKILFPGRDYIDQWNKVIEQLGTPCPEFMKKLQPTVRTYVENRPKYAGYSFEKLFPDVLFPADSEHNKLKASQARDLLSKMLVIDASKRISVDEALQHPYINVWYDPSEAEAPPPKIPDKQLDEREHTIEEWKELIYKEVMDLEERTKNGVIRGQPSPLGAAVINGSQHPSSSSSVNDVSSMSTDPTLASDTDSSLEAAAGPLGCCR | – | – | – | unaffected | little effect on the proteolysis of the MEKK1 protein | unaffected | no effect | no protective effect
